Experimental data published in PMC6321292, “Comparative Transcriptomics Analysis for Gene Mining and Identification of a Cinnamyl Alcohol Dehydrogenase Involved in Methyleugenol Biosynthesis from Asarum sieboldii Miq” (Molecules, 2018).

Experiments:
Test in all cases: purified protein
Format in all cases: biochemical, Asarum sieboldii
Settings in all cases: 0.5 mM NADPH, 50 mM Tris-HCl pH 7.5, 2 mM DTT, 30 °C
[1] = substrate: COc1cc(/C=C/C=O)ccc1O
[2] = substrate: O=C/C=C/c1ccc(O)cc1
[3] = substrate: COc1cc(/C=C/C=O)cc(OC)c1O

B1: AsCAD5 (Asarum sieboldii) (protein)
chain: MSNQSGTDNCLGWAARDPSGILSPHSFSRRSIGSDDVSLKITHCGVCYADVAWTRNKVGDSMYPLVPGHEIVGIVQEVGSDVNRFKIGDHVGVGTYVNSCRECVYCKDKLEVVCQKGPTLTFNSLDVDGTITKGGYSSHIVVNERYCYRIPDGYPLVSAAPLLCAGITVYAPMMRHKMNQPGKSLGVIGLGGLGHMAVKFGKAFGLNVTVFSTSESKKEEALKLLGADRFVISSDKKQMEGVMKSLDFIIDTASGDHPFDPYMALLKTTGILVLVGFPSEVKFNPGSLILGLRTLSGSVTGGTKDTQEMLEFCAANKIYPEIELINIEYINEALERLINREVKYRFVIDIENSLK
notes: full ORF 1068 bp (about 355 residues), pMAL-C5X MBP fusion in E. coli Rosetta (DE3), MBP tag removed by Factor Xa, ca. 40 kDa
Work on B1 yielded a Km [1] of 27.32 ± 6.186 µM, a Vmax [1] of 20.5 µmol/min/mg and a kcat [1] of 222 s⁻¹. For the same protein, the kcat/Km [1] was 8.12e+06 M⁻¹ s⁻¹, the Km [2] was 45.52 ± 8.888 µM and the Vmax [2] was 23 µmol/min/mg. It also gave a kcat [2] of 249 s⁻¹, a kcat/Km [2] of 5.47e+06 M⁻¹ s⁻¹ and a Km [3] of 35.02 ± 8.043 µM. The Vmax [3] was 26.9 µmol/min/mg, the kcat [3] was 291 s⁻¹ and the kcat/Km [3] was 8.3e+06 M⁻¹ s⁻¹.
